The values below come from patent US5889153A, “Protein or polypeptide, method for producing the same and intermediate compound therefor” (Hisamitsu Pharmaceutical Co., Inc., priority 1994, dated 1999).

In one series the test system is blood glucose. The series can be described thus: pharmacological effect of modified insulin: blood glucose value after intravenous administration. Format: in vivo. The conditions noted are these: about 0.5 U intravenously, normal rat.
The nature of series [1]: in-vivo behaviors of modified SOD: SOD concentration in blood after intravenous administration. Also on record: species or system rat. To be noted: about 5,000 U intravenously; for in-vivo behaviors (SOD concentration in blood): urethane-anesthetized rat or rat with ligated renal artery.
Description: About 5,000 U p-nitrophenyl formate-activated polyethyleneglycol-monocholesterolether (compound C)-modified or non-modified SOD were intravenously administered to an urethane-anesthetized rat or a rat of which only the renal artery was ligated after urethane anesthesia. Then, at prescribed intervals of time, venous blood was sampled to measure the SOD concentration in blood at each time point.
In a further series the test system is acute gastric ulcer. The series can be described thus: pharmacological effect of modified SOD: water immersion stress ulcerative model. The series is classed as in vivo. To be noted: 10,000 U, rat, compared with non-modified SOD. The procedure:
To a rat, 10,000 U p-nitrophenyl formate-activated polyethyleneglycol-monocholesterolether (compound C)-modified or non-modified SOD were administered. Then, an acute gastric ulcer was caused in accordance with the method for preparing a water immersion stress ulcerative model, and the effect inhibiting generation of ulcer at this point was investigated.

The nature of series [2]: water-solubility of reactive PEG derivative. The series is classed as physicochemical. The conditions noted are these: 0.025 mM Na2B4O7.10H2O, pH 9.2, given as the reason for insufficient modification. Here is the method: After dissolving bovine-derived insulin (6.0 mg) in 0.025 mM Na2 B4 O7.10H2 O (pH: 9.2) in an amount of 200 ml, p-nitrophenyl formate-activated polyethyleneglycolmono-cholesterolether (compound A), N-succinimide-activated polyethyleneglycol-monocholesterolether (compound B), p-nitrophenyl formate-activated polyethyleneglycol-mono-cholesterolether (compound C), cyanulchloride-activated polyethyleneglycol-monocholesterolether (compound D), double-type cyanulchloride-activated polyethyleneglycol-monocholesterolether (compound E), and p-nitrophenyl formate-activated polyethyleneglycol-monocholosterolether (compound F) obtained in Example 1 were respectively added in an amount of 2.0 nmol, and the mixtures were stirred at the room temperature for five hours. The resultant mixtures were purified through gel filtration by the use of Sephadex G-75 (made by Pharmacia Company). The target fraction was desalted and concentrated through ultrafiltration (made by Pharmacia Company), thereby obtaining the target aqueous solution (1.8 mg/ml). In the case of p-nitrophenyl formate-activated polyethylene-glycol-monocholesterolether (compoundA), the target modification was insufficient. […] In the case of p-nitrophenyl formate-activated polyethyleneglycol-monocholesterolether (compound F) also, the chemical modification was not sufficient. This is considered to be due to stereo-hindrance.

Description for blood glucose: Then, at prescribed intervals of time, venous blood was sampled to measure the insulin concentration in blood and blood glucose value at each time point.

On to insulin [non-modified insulin], for which, in the series on blood glucose, the “pharmacological effect (blood glucose value)” value is recorded as “identical pharmacological effects”.
As for “modified SOD: bovine-derived Cu, Zn-SOD modified with p-nitrophenyl formate-activated polyethyleneglycol-monocholesterolether (compound C), Example 3”, in series [1] (rat), the glomerular filtration entry is recorded as “exempt from glomerular filtration” and the half-life in blood entry is “extended”. Moreover, the “in-vivo behaviors (SOD concentration in blood)” value in series [1] is on record as “largely improved”. Moreover, the “effect inhibiting generation of ulcer” value with acute gastric ulcer is “production of an ulcer is inhibited”.
Take “non-modified SOD: bovine-derived Cu, Zn-SOD (Superoxide Dismutase), not modified”: in series [1], the “in-vivo behaviors (SOD concentration in blood)” value is reported as “clearly improved”.
As for “p-nitrophenyl formate-activated polyethylene-glycolmonocholesterolether [compound A]”, the water-solubility result in series [2] is “low water-solubility”.
